The values below are quoted from earlier work in patent publication US20040047891A1, “Systems devices and methods for intrabody targeted delivery and reloading of therapeutic agents” (priority 2003, published 2004).

Like-named read-outs stand apart in the source and are kept apart here.

In data set [1] the target is T1, ET-A receptor (Homo sapiens, UniProt P25101).
T1 sequence (P25101 21-427): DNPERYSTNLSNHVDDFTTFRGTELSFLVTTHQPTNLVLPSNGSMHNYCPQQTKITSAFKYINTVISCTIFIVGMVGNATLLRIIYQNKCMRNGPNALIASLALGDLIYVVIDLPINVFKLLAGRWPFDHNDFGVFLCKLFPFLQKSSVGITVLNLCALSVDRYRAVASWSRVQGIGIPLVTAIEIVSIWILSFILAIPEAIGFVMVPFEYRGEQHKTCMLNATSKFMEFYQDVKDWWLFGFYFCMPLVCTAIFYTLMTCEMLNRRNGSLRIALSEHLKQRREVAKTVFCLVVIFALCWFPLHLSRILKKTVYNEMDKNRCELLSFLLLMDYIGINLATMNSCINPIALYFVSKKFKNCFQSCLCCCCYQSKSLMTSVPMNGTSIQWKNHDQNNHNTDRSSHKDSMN

Consider `CCCCN(CCCC)C(=O)CN1C[C@H](c2ccc3c(c2)OCO3)[C@@H](C(=O)O)[C@@H]1c1ccc(OC)cc1` [ABT-627], for which, in data set [1], the “Time to dissociate from the ET-A receptor” value is not above 2 h.
Take “Avidin: biotin-binding protein, source chicken egg white; member of the biotin-avidin binding pair”: the Koff is 200 sec^−1 · 10^7 (pH 2), 9 sec^−1 · 10^7 (pH 3), 0.9 sec^−1 · 10^7 (pH 5) and 0.4 sec^−1 · 10^7 (pH 7).
In the case of “Streptavidin: avidin derivative, source fermentation, no carbohydrates”, the Koff is reported as 35 sec^−1 · 10^7 (pH 1.7); 19 sec^−1 · 10^7 (pH 3); 8.7 sec^−1 · 10^7 (pH 5); 28 sec^−1 · 10^7 (pH 7); 64 sec^−1 · 10^7 (pH 9.2); 100 sec^−1 · 10^7 (pH 10.5).
